Measured values reported in article PMC3969020.

Substrate: OCc1ccccc1
Test: steady-state kinetics
Type: biochemical, Equus caballus
Conditions: NAD+; catalytic zinc; 25.0 °C

B1: Horse liver alcohol dehydrogenase (ADH), E isoenzyme (Equus caballus; V208A) (protein)
chain: STAGKVIKCKAAVLWEEKKPFSIEEVEVAPPKAHEVRIKMVATGICRSDDHVVSGTLVTPLPVIAGHEAAGIVESIGEGVTTVRPGDKVIPLFTPQCGKCRVCKHPEGNFCLKNDLSMPRGTMQDGTSRFTCRGKPIHHFLGTSTFSQYTVVDEISVAKIDAASPLEKVCLIGCGFSTGYGSAVKVAKVTQGSTCAVFGLGGVGLSAIMGCKAAGAARIIGVDINKDKFAKAKEVGATECVNPQDYKKPIQEVLTEMSNGGVDFSFEVIGRLDTMVTALSCCQEAYGVSVIVGVPPDSQNLSMNPMLLLSGRTWKGAIFGGFKSKDSVPKLVADFMAKKFALDPLITHVLPFEKINEGFDLLRSGESIRTILTF
Km: 13 ± 1 µM

B2: Horse liver alcohol dehydrogenase (ADH), E isoenzyme (Equus caballus) (protein)
chain: STAGKVIKCKAAVLWEEKKPFSIEEVEVAPPKAHEVRIKMVATGICRSDDHVVSGTLVTPLPVIAGHEAAGIVESIGEGVTTVRPGDKVIPLFTPQCGKCRVCKHPEGNFCLKNDLSMPRGTMQDGTSRFTCRGKPIHHFLGTSTFSQYTVVDEISVAKIDAASPLEKVCLIGCGFSTGYGSAVKVAKVTQGSTCAVFGLGGVGLSVIMGCKAAGAARIIGVDINKDKFAKAKEVGATECVNPQDYKKPIQEVLTEMSNGGVDFSFEVIGRLDTMVTALSCCQEAYGVSVIVGVPPDSQNLSMNPMLLLSGRTWKGAIFGGFKSKDSVPKLVADFMAKKFALDPLITHVLPFEKINEGFDLLRSGESIRTILTF
Km: 14 ± 1 µM
